Measured values as given in US20210388087A1 (Chugai, published 2021).

Molecular target: T1, CD3 epsilon homodimer protein (UniProt P07766 23-126)
T1 construct: also called CD3 (CD3 epsilon)
Test: SPR, CD3 epsilon homodimer on chip, one-arm antibody as analyte;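 also: surface plasmon resonance at 25 °C with CD3 epsilon homodimer amine-coupled to a CM4 sensor chip, antibody injected as analyte, HBS-EP+ as running buffer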

T1 sequence (P07766 23-126): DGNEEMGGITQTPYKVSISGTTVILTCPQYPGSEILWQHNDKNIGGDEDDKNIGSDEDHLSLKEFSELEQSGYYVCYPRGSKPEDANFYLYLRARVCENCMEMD

KD ratio (KD of CE115HA000/KD of altered form) | Binder
0.89 | CE115HA000 K43Q (antibody, human IgG1, kappa, L234A L235A, N297A, name in Kabat numbering, one-arm antibody) heavy: QVQLVESGGGVVQPGRSLRLSCAASGFTFSNAWMHWVRQAPGQGLEWVAQIKAKSNNYATYYAESVKGRFTISRDDSKNSLYLQMNSLKTEDTAVYYCRYVHYGAYYGVDAWGQGTTVTVSSASTKGPSVFPLAPSSKSTSGGTAALGCLVKDYFPEPVTVSWNSGALTSGVHTFPAVLQSSGLYSLSSVVTVPSSSLGTQTYICNVNHKPSNTKVDKKVEPKSCDKTHTCPPCPAPEAAGGPSVFLFPPKPKDTLMISRTPEVTCVVVDVSHEDPEVKFNWYVDGVEVHNAKTKPREEQYASTYRVVSVLTVLHQDWLNGKEYKCKVSNKALPAPIEKTISKAKGQPREPQVYTLPPSRCELTKNQVSLSCAVKGFYPSDIAVEWESNGQPENNYKTTPPVLDSDGSFFLVSKLTVDKSRWQQGNVFSCSVMHEALHNHYTQKSLSLSPDYKDDDDK EPKSSDKTHTCPPCPAPELLGGPSVFLFPPKPKDTLMISRTPEVTCVVVDVSHEDPEVKFNWYVDGVEVHNAKTKPREEQYNSTYRVVSVLTVLHQDWLNGKEYKCKVSNKALPAPIEKTISKAKGQPREPQVCTLPPSRDELTKNQVSLWCLVKGFYPSDIAVEWESNGQPENNYKTTPPVLDSDGSFFLYSKLTVDKSRWQQGNVFSCSVMHEALHNRYTQKSLSLSP light: DIVMTQSPLSLPVTPGEPASISCRSSQSLVHSNRNTYLHWYQQKPGQAPRLLIYKVSNRFSGVPDRFSGSGSGTDFTLKISRVEAEDVGVYYCGQGTQVPYTFGQGTKLEIKRTVAAPSVFIFPPSDEQLKSGTASVVCLLNNFYPREAKVQWKVDNALQSGNSQESVTEQDSKDSTYSLSSTLTLSKADYEKHKVYACEVTHQGLSSPVTKSFNRGEC
2.65 | CE115HA000 K52H (antibody, human IgG1, kappa, L234A L235A, N297A, name in Kabat numbering, one-arm antibody) heavy: QVQLVESGGGVVQPGRSLRLSCAASGFTFSNAWMHWVRQAPGKGLEWVAQIHAKSNNYATYYAESVKGRFTISRDDSKNSLYLQMNSLKTEDTAVYYCRYVHYGAYYGVDAWGQGTTVTVSSASTKGPSVFPLAPSSKSTSGGTAALGCLVKDYFPEPVTVSWNSGALTSGVHTFPAVLQSSGLYSLSSVVTVPSSSLGTQTYICNVNHKPSNTKVDKKVEPKSCDKTHTCPPCPAPEAAGGPSVFLFPPKPKDTLMISRTPEVTCVVVDVSHEDPEVKFNWYVDGVEVHNAKTKPREEQYASTYRVVSVLTVLHQDWLNGKEYKCKVSNKALPAPIEKTISKAKGQPREPQVYTLPPSRCELTKNQVSLSCAVKGFYPSDIAVEWESNGQPENNYKTTPPVLDSDGSFFLVSKLTVDKSRWQQGNVFSCSVMHEALHNHYTQKSLSLSPDYKDDDDK EPKSSDKTHTCPPCPAPELLGGPSVFLFPPKPKDTLMISRTPEVTCVVVDVSHEDPEVKFNWYVDGVEVHNAKTKPREEQYNSTYRVVSVLTVLHQDWLNGKEYKCKVSNKALPAPIEKTISKAKGQPREPQVCTLPPSRDELTKNQVSLWCLVKGFYPSDIAVEWESNGQPENNYKTTPPVLDSDGSFFLYSKLTVDKSRWQQGNVFSCSVMHEALHNRYTQKSLSLSP light: DIVMTQSPLSLPVTPGEPASISCRSSQSLVHSNRNTYLHWYQQKPGQAPRLLIYKVSNRFSGVPDRFSGSGSGTDFTLKISRVEAEDVGVYYCGQGTQVPYTFGQGTKLEIKRTVAAPSVFIFPPSDEQLKSGTASVVCLLNNFYPREAKVQWKVDNALQSGNSQESVTEQDSKDSTYSLSSTLTLSKADYEKHKVYACEVTHQGLSSPVTKSFNRGEC
166 | CE115HA000 K52D (antibody, human IgG1, kappa, L234A L235A, N297A, name in Kabat numbering, one-arm antibody) heavy: QVQLVESGGGVVQPGRSLRLSCAASGFTFSNAWMHWVRQAPGKGLEWVAQIDAKSNNYATYYAESVKGRFTISRDDSKNSLYLQMNSLKTEDTAVYYCRYVHYGAYYGVDAWGQGTTVTVSSASTKGPSVFPLAPSSKSTSGGTAALGCLVKDYFPEPVTVSWNSGALTSGVHTFPAVLQSSGLYSLSSVVTVPSSSLGTQTYICNVNHKPSNTKVDKKVEPKSCDKTHTCPPCPAPEAAGGPSVFLFPPKPKDTLMISRTPEVTCVVVDVSHEDPEVKFNWYVDGVEVHNAKTKPREEQYASTYRVVSVLTVLHQDWLNGKEYKCKVSNKALPAPIEKTISKAKGQPREPQVYTLPPSRCELTKNQVSLSCAVKGFYPSDIAVEWESNGQPENNYKTTPPVLDSDGSFFLVSKLTVDKSRWQQGNVFSCSVMHEALHNHYTQKSLSLSPDYKDDDDK EPKSSDKTHTCPPCPAPELLGGPSVFLFPPKPKDTLMISRTPEVTCVVVDVSHEDPEVKFNWYVDGVEVHNAKTKPREEQYNSTYRVVSVLTVLHQDWLNGKEYKCKVSNKALPAPIEKTISKAKGQPREPQVCTLPPSRDELTKNQVSLWCLVKGFYPSDIAVEWESNGQPENNYKTTPPVLDSDGSFFLYSKLTVDKSRWQQGNVFSCSVMHEALHNRYTQKSLSLSP light: DIVMTQSPLSLPVTPGEPASISCRSSQSLVHSNRNTYLHWYQQKPGQAPRLLIYKVSNRFSGVPDRFSGSGSGTDFTLKISRVEAEDVGVYYCGQGTQVPYTFGQGTKLEIKRTVAAPSVFIFPPSDEQLKSGTASVVCLLNNFYPREAKVQWKVDNALQSGNSQESVTEQDSKDSTYSLSSTLTLSKADYEKHKVYACEVTHQGLSSPVTKSFNRGEC
4.04 | CE115HA000 K52F (antibody, human IgG1, kappa, L234A L235A, N297A, name in Kabat numbering, one-arm antibody) heavy: QVQLVESGGGVVQPGRSLRLSCAASGFTFSNAWMHWVRQAPGKGLEWVAQIFAKSNNYATYYAESVKGRFTISRDDSKNSLYLQMNSLKTEDTAVYYCRYVHYGAYYGVDAWGQGTTVTVSSASTKGPSVFPLAPSSKSTSGGTAALGCLVKDYFPEPVTVSWNSGALTSGVHTFPAVLQSSGLYSLSSVVTVPSSSLGTQTYICNVNHKPSNTKVDKKVEPKSCDKTHTCPPCPAPEAAGGPSVFLFPPKPKDTLMISRTPEVTCVVVDVSHEDPEVKFNWYVDGVEVHNAKTKPREEQYASTYRVVSVLTVLHQDWLNGKEYKCKVSNKALPAPIEKTISKAKGQPREPQVYTLPPSRCELTKNQVSLSCAVKGFYPSDIAVEWESNGQPENNYKTTPPVLDSDGSFFLVSKLTVDKSRWQQGNVFSCSVMHEALHNHYTQKSLSLSPDYKDDDDK EPKSSDKTHTCPPCPAPELLGGPSVFLFPPKPKDTLMISRTPEVTCVVVDVSHEDPEVKFNWYVDGVEVHNAKTKPREEQYNSTYRVVSVLTVLHQDWLNGKEYKCKVSNKALPAPIEKTISKAKGQPREPQVCTLPPSRDELTKNQVSLWCLVKGFYPSDIAVEWESNGQPENNYKTTPPVLDSDGSFFLYSKLTVDKSRWQQGNVFSCSVMHEALHNRYTQKSLSLSP light: DIVMTQSPLSLPVTPGEPASISCRSSQSLVHSNRNTYLHWYQQKPGQAPRLLIYKVSNRFSGVPDRFSGSGSGTDFTLKISRVEAEDVGVYYCGQGTQVPYTFGQGTKLEIKRTVAAPSVFIFPPSDEQLKSGTASVVCLLNNFYPREAKVQWKVDNALQSGNSQESVTEQDSKDSTYSLSSTLTLSKADYEKHKVYACEVTHQGLSSPVTKSFNRGEC

The remaining lines, values behind:

Binder | KD ratio (KD of CE115HA000/KD of altered form)
CE115HA000 K52I (antibody, human IgG1, kappa, L234A L235A, N297A, name in Kabat numbering, one-arm antibody) heavy: QVQLVESGGGVVQPGRSLRLSCAASGFTFSNAWMHWVRQAPGKGLEWVAQIIAKSNNYATYYAESVKGRFTISRDDSKNSLYLQMNSLKTEDTAVYYCRYVHYGAYYGVDAWGQGTTVTVSSASTKGPSVFPLAPSSKSTSGGTAALGCLVKDYFPEPVTVSWNSGALTSGVHTFPAVLQSSGLYSLSSVVTVPSSSLGTQTYICNVNHKPSNTKVDKKVEPKSCDKTHTCPPCPAPEAAGGPSVFLFPPKPKDTLMISRTPEVTCVVVDVSHEDPEVKFNWYVDGVEVHNAKTKPREEQYASTYRVVSVLTVLHQDWLNGKEYKCKVSNKALPAPIEKTISKAKGQPREPQVYTLPPSRCELTKNQVSLSCAVKGFYPSDIAVEWESNGQPENNYKTTPPVLDSDGSFFLVSKLTVDKSRWQQGNVFSCSVMHEALHNHYTQKSLSLSPDYKDDDDK EPKSSDKTHTCPPCPAPELLGGPSVFLFPPKPKDTLMISRTPEVTCVVVDVSHEDPEVKFNWYVDGVEVHNAKTKPREEQYNSTYRVVSVLTVLHQDWLNGKEYKCKVSNKALPAPIEKTISKAKGQPREPQVCTLPPSRDELTKNQVSLWCLVKGFYPSDIAVEWESNGQPENNYKTTPPVLDSDGSFFLYSKLTVDKSRWQQGNVFSCSVMHEALHNRYTQKSLSLSP light: DIVMTQSPLSLPVTPGEPASISCRSSQSLVHSNRNTYLHWYQQKPGQAPRLLIYKVSNRFSGVPDRFSGSGSGTDFTLKISRVEAEDVGVYYCGQGTQVPYTFGQGTKLEIKRTVAAPSVFIFPPSDEQLKSGTASVVCLLNNFYPREAKVQWKVDNALQSGNSQESVTEQDSKDSTYSLSSTLTLSKADYEKHKVYACEVTHQGLSSPVTKSFNRGEC | 3.54
CE115HA000 K52E (antibody, human IgG1, kappa, L234A L235A, N297A, name in Kabat numbering, one-arm antibody) heavy: QVQLVESGGGVVQPGRSLRLSCAASGFTFSNAWMHWVRQAPGKGLEWVAQIEAKSNNYATYYAESVKGRFTISRDDSKNSLYLQMNSLKTEDTAVYYCRYVHYGAYYGVDAWGQGTTVTVSSASTKGPSVFPLAPSSKSTSGGTAALGCLVKDYFPEPVTVSWNSGALTSGVHTFPAVLQSSGLYSLSSVVTVPSSSLGTQTYICNVNHKPSNTKVDKKVEPKSCDKTHTCPPCPAPEAAGGPSVFLFPPKPKDTLMISRTPEVTCVVVDVSHEDPEVKFNWYVDGVEVHNAKTKPREEQYASTYRVVSVLTVLHQDWLNGKEYKCKVSNKALPAPIEKTISKAKGQPREPQVYTLPPSRCELTKNQVSLSCAVKGFYPSDIAVEWESNGQPENNYKTTPPVLDSDGSFFLVSKLTVDKSRWQQGNVFSCSVMHEALHNHYTQKSLSLSPDYKDDDDK EPKSSDKTHTCPPCPAPELLGGPSVFLFPPKPKDTLMISRTPEVTCVVVDVSHEDPEVKFNWYVDGVEVHNAKTKPREEQYNSTYRVVSVLTVLHQDWLNGKEYKCKVSNKALPAPIEKTISKAKGQPREPQVCTLPPSRDELTKNQVSLWCLVKGFYPSDIAVEWESNGQPENNYKTTPPVLDSDGSFFLYSKLTVDKSRWQQGNVFSCSVMHEALHNRYTQKSLSLSP light: DIVMTQSPLSLPVTPGEPASISCRSSQSLVHSNRNTYLHWYQQKPGQAPRLLIYKVSNRFSGVPDRFSGSGSGTDFTLKISRVEAEDVGVYYCGQGTQVPYTFGQGTKLEIKRTVAAPSVFIFPPSDEQLKSGTASVVCLLNNFYPREAKVQWKVDNALQSGNSQESVTEQDSKDSTYSLSSTLTLSKADYEKHKVYACEVTHQGLSSPVTKSFNRGEC | 19.4
